{
  "source": "patent US20260217793A1",
  "about": "(Chugai, published 2026)",
  "key": {"human IgA (hIgA)": {"target": "human IgA (hIgA)", "assay": "SPR, comparison of calcium conditions"}, "human FcγRIIa type R": {"target": "T1, human FcγRIIa type R (human, UniProt P12318 34-217)", "T1 sequence (looked up)": "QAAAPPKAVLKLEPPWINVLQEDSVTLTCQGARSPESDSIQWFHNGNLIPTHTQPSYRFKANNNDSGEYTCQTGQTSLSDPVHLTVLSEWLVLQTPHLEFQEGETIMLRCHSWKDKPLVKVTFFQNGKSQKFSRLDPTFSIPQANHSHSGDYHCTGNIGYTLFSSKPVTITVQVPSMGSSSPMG", "assay": "SPR, amount bound per captured antibody"}, "human FcγRIIb": {"target": "T2, human FcγRIIb (human, UniProt P31994 43-217)", "T2 sequence (looked up)": "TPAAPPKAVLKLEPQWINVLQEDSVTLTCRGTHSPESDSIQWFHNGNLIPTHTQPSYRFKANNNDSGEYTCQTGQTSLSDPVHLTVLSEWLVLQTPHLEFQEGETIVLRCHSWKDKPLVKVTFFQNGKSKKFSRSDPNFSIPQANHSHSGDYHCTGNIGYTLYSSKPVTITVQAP", "assay": "SPR, amount bound per captured antibody"}, "FcγRIa": {"target": "FcγRIa (human, UniProt P12314 16-292)", "sequence (P12314 16-292)": "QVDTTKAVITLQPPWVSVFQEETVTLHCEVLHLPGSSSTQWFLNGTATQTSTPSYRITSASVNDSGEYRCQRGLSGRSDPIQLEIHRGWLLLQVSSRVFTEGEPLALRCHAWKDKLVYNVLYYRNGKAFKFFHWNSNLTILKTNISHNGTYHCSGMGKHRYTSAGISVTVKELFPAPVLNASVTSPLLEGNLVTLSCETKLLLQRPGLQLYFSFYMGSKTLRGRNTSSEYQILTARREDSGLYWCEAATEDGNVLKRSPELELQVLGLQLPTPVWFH", "assay": "SPR"}, "FcγRIIa type R": {"target": "T3, FcγRIIa type R (human, UniProt P12318 34-217)", "T3 sequence (looked up)": "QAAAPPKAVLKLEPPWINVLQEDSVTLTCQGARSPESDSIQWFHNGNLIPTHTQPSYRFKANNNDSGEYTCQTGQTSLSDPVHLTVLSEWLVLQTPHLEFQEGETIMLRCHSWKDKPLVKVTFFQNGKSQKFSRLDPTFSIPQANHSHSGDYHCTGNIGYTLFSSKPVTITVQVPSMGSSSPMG", "assay": "SPR"}, "FcγRIIa type H": {"target": "T4, FcγRIIa type H (human, UniProt P12318 34-217)", "T4 sequence (looked up)": "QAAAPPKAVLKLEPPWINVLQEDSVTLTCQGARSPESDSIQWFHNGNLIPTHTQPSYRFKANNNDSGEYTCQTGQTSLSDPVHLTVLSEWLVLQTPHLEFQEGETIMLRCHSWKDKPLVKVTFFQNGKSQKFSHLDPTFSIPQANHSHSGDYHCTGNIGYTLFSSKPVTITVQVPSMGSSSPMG", "assay": "SPR"}, "FcγRIIb": {"target": "T5, FcγRIIb (human, UniProt P31994 43-217)", "T5 sequence (looked up)": "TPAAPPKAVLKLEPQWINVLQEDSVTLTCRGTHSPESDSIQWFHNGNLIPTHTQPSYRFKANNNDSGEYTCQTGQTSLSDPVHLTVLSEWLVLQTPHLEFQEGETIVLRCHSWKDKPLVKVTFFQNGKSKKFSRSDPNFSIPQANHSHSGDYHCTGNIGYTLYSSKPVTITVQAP", "assay": "SPR"}, "FcγRIIIa type V": {"target": "FcγRIIIa type V (human, UniProt P08637 17-208)", "sequence (P08637 17-208 F176V)": "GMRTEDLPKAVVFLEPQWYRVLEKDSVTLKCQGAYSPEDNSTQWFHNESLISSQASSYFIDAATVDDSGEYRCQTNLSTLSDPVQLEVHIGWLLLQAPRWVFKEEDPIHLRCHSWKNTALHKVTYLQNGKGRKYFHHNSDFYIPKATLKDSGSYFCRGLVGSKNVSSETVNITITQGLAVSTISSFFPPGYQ", "assay": "SPR"}},
  "data": [
    {"binder": "GA2-IgG1 (antibody, V domains shown) VH: QVQLVQSGAEVKKPGSSVKVSCKASGGTFSSYAISWVRQAPGQGLEWMGGIIPIFGTANYAQKFQGRVTITADESTSTAYMELSSLRSEDTAVYYCARPRWETAISSDAFDIWGQGTMVTVSS VL: DIQMTQSPSSLSASVGDRVTITCRASQSISDDLNWYQQKPGKAPKLLIYEASNLQSGVPSRFSGSGSGTDFTLTISSLQPEDFATYYCQQHSSSPLTFGQGTKVEIKR", "values": [
      {"measurement": "Ca-dependent hIgA-binding activity (fold)", "setting": "human IgA (hIgA)", "value": "≥ 100", "unit": "fold"}
    ]},
    {"binder": "IL6R-F652/IL6R-L (antibody, human IgG1, kappa) heavy: QVQLQESGPGLVKPSETLSLTCAVSGHSISHDHAWSWVRQPPGEGLEWIGFISYSGITNYNPSLQGRVTISRDNSKNTLYLQMNSLRAEDTAVYYCARSLARTTAMDYWGEGTLVTVSSASTKGPSVFPLAPSSKSTSGGTAALGCLVKDYFPEPVTVSWNSGALTSGVHTFPAVLQSSGLYSLSSVVTVPSSSLGTQTYICNVNHKPSNTKVDKKVEPKSCDKTHTCPPCPAPELLGGDSVFLFPPKPKDTLYISRTPEVTCVVVDVSHEDPEVKFNWYVDGVEVHNAKTKPREEQYNSTYRVVSVLTVLHQDWLNGKEYKCKVSNKALPAPIEKTISKAKGQPREPQVYTLPPSRDELTKNQVSLTCLVKGFYPSDIAVEWESNGQPENNYKTTPPVLDSDGSFFLYSKLTVDKSRWQQGNVFSCSVMHEALHYHYTQKSLSLSP light: not shown", "values": [
      {"measurement": "relative binding activity (IL6R-F652/IL6R-L = 100)", "setting": "human FcγRIIa type R", "value": 100},
      {"measurement": "relative binding activity (IL6R-F652/IL6R-L = 100)", "setting": "human FcγRIIb", "value": 100}
    ]},
    {"binder": "IL6R-BP198/IL6R-L (antibody, human IgG1, kappa) heavy: QVQLQESGPGLVKPSETLSLTCAVSGHSISHDHAWSWVRQPPGEGLEWIGFISYSGITNYNPSLQGRVTISRDNSKNTLYLQMNSLRAEDTAVYYCARSLARTTAMDYWGEGTLVTVSSASTKGPSVFPLAPSSKSTSGGTAALGCLVKDYFPEPVTVSWNSGALTSGVHTFPAVLQSSGLYSLSSVVTVPSSSLGTQTYICNVNHKPSNTKVDKKVEPKSCDKTHTCPPCPAPDYLGGDSVFLFPPKPKDTLMISRTPEVTCVVVDVSDEDGEVKFNWYVDGVEVHNAKTKPREEQYNSTYRVVSVLTVLHQDWLNGKEYKCKVSNAALPKPIEKTISKAKGQPREPQVYTLPPSRDELTKNQVSLTCLVKGFYPSDIAVEWESNGQPENNYKTTPPVLDSDGSFFLYSKLTVDKSRWQQGNVFSCSVMHEALHNHYTQESLSLSP light: not shown", "values": [
      {"measurement": "relative binding activity", "setting": "FcγRIa", "value": "104 % of control"},
      {"measurement": "relative binding activity", "setting": "FcγRIIa type R", "value": "449 % of control"},
      {"measurement": "relative binding activity", "setting": "FcγRIIa type H", "value": "188 % of control"},
      {"measurement": "relative binding activity", "setting": "FcγRIIb", "value": "164 % of control"},
      {"measurement": "relative binding activity", "setting": "FcγRIIIa type V", "value": "157 % of control"}
    ]}
  ]
}
